# Experiments:
# [1] = molecular target: T1, Human FXI protein (coagulation factor XI) (human, UniProt P03951 19-625); assay: cell-based or functional assay
# [2] = molecular target: monkey FXI (in monkey plasma) (monkey); assay: cell-based or functional assay
# [3] = molecular target: T2, Human FXIa protein (activated coagulation factor XI) (human, UniProt P03951 19-625); assay: SPR (Biacore T200), antibody captured on Protein A chip, FXIa as analyte, 1:1 Langmuir fit
# T2 construct: Bought from Enzyme Research Laboratories (HFXIa 1111a); also called factor XIa; HFXIa 1111a
# Source text: (§1) A certain amount of antibodies to be tested was affinity-captured using a Protein A biosensor chip (Cat. #29127556, GE), then FXI/FXIa at a series of concentration gradients flowed through the surface of the chip. The reaction signals were detected in real time using a Biacore instrument (Biacore T200, GE) to obtain association and dissociation curves. After dissociation was completed for each cycle, the biochip was washed and regenerated with a regeneration solution prepared in a human antibody capture kit or a glycine-hydrochloric acid regeneration solution (pH 1.5, Cat. #BR-1003-54, GE). The buffer used in the experiment was HBS-EP+10× buffer (Cat. #BR-1006-69, GE) diluted to 1× (pH 7.4) with double distilled water.
# (§2) The data obtained from the experiment were fitted using BIAevaluation version 4.1, GE software using a (1:1) Langmuir model to obtain affinity values. The test results of part of antibodies are shown in FIG. 1A, FIG. 1B and Table 6 below.
# [4] = molecular target: T1, Human FXI protein (coagulation factor …); assay: SPR (Biacore T200), antibody captured on Protein A chip, FXI as analyte, 1:1 Langmuir fit
# Source text: as §1, §2
Binder,"aPTT1.5 (concentration prolonging aPTT by 50% relative to PBS), human blood [1] [µg/mL]","aPTT1.5 (concentration prolonging aPTT by 50% relative to PBS), monkey blood [2] [µg/mL]",Kd [3] [nM],koff [3] [s⁻¹],kon [3] [M⁻¹ s⁻¹],Kd [4] [nM],koff [4] [s⁻¹],kon [4] [M⁻¹ s⁻¹]
"antibody 3871 (antibody, V domains shown, Humanized from 3807: VH is 3807-VH1 and VL is 3807-VL3) VH: QVQLVQSGAEVKKPGSSVKVSCKASGFNIKDDYMHWVRQAPGQGLEWMGWIDPENGDTEYASKFQGRVTITADESTSTAYMELSSLRSEDTAVYYCLYGNFYYFDYWGQGTTVTVSS VL: EIVLTQSPATLSLSPGERATLSCSASSSINYMHWYQQKPGQAPKRWIYDTSKLASGVPARFSGSGSGTDFTLTISSLEPEDFAVYYCHQRSFSPLTFGQGTKLEIK",0.88,1.12,0.57,0.000708,1.24e+06,0.02,2.66e-05,1.32e+06
"antibody 0012 (antibody, V domains shown) VH: QVQLQQSGAEVKKPGASVKVSCKVSGYTLTELSMHWVRQAPGKGLEWMGGFDPEDGETIYAQKFQGRVTMTEDTSTDTAYMELSSLRSEDTAVYYCATDPHRTWWRYFDWLYPRGMDVWGQGTTVTVSS VL: EIVMTQSPGTLSLSPGERATLSCRASQTVGKNYLAWYQQKPGQAPRLLIYGASNRATGIPDRFSGSGSGTDFTLTISRLEPEDFGTYYCQQFRSYPYTFGQGTKVEIK",14.6,> 8.33,,,,,,
"antibody 1209 (0012-K3) (antibody, human IgG1, kappa, V domains shown) VH: QVQLQQSGAEVKKPGASVKVSCKVSGYTLTSILMHWVRQAPGKGLEWMGGFDPQDGETVYAQKFQGRVTMTEDTSTDTAYMELSSLRSEDTAVYYCATDPHRTWWRYFDWLYPRGMDVWGQGTTVTVSS VL: EIVMTQSPGTLSLSPGERATLSCRASQTVGKNYLAWYQQKPGQAPRLLIYEASVRALGIPDRFSGSGSGTDFTLTISRLEPEDFGTYYCQQFRSYPYTFGQGTKVEIKR",4.68,4.08,,,,,,
"antibody 1267 (Kg3g) (antibody, human IgG1, kappa, V domains shown, Heavy chain is VH + human CH1 + IgG1 Fc) VH: QVQLVQSGAEVKKPGASVKVSCKVSGYTLTSILMHWVRQAPGKGLEWMGGFDPQDGETVYAQKFQGRVTMTEDTSTDTAYMELSSLRSEDTAVYYCATDPHRTWWRYFDWLYPRGMDVWGQGTTVTVSS VL: EIVLTQSPGTLSLSPGERATLSCRASQTVGKNYLAWYQQKPGQAPRLLIYEASVRALGIPDRFSGSGSGTDFTLTISRLEPEDFAVYYCQQFRSYPYTFGQGTKVEIKR",,,0.0222,1.79e-05,873000,,,
"BAY1213790 (antibody, human IgG1, kappa, V domains shown) VH: EVQLLESGGGLVQPGGSLRLSCAASGFTFSQYGMDWVRQAPGKGLEWVSGIGPSGGSTVYADSVKGRFTISRDNSKNTLYLQMNSLRAEDTAVYYCTRGGPYYYYGMDVWGQGTTVTVSS VL: DIQMTQSPSSLSASVGDRVTITCQASQDISNYLNWYQQKPGKAPKLLIYDASNLETGVPSRFSGSGSGTDFTFTISSLQPEDIATYYCQQADSFPVTFGGGTKVEIKR",2.15,2.73,,,,,,

# Continued, values first:
"aPTT1.5 (concentration prolonging aPTT by 50% relative to PBS), human blood [1] [µg/mL]","aPTT1.5 (concentration prolonging aPTT by 50% relative to PBS), monkey blood [2] [µg/mL]",Kd [3] [nM],koff [3] [s⁻¹],kon [3] [M⁻¹ s⁻¹],Kd [4] [nM],koff [4] [s⁻¹],kon [4] [M⁻¹ s⁻¹],Binder
0.63,1.14,0.364,0.000387,1.06e+06,0.0296,5.85e-05,1.97e+06,"antibody 3882 (antibody, human IgG4 S228P, kappa, V domains shown) VH: QVQLVQSGAEVKKPGSSVKVSCKASGGTFSDDYMHWVRQAPGQGLEWMGWIDPENGDTEYASKFQGRVTITADESTSTAYMELSSLRSEDTAVYYCLYGNFYYFDYWGQGTTVTVSS VL: EIVLTQSPATLSLSPGERATLSCSASSSINYMHWYQQKPGQAPKRWIYDTSKLASGVPARFSGSGSGTDFTLTISSLEPEDFAVYYCHQRSFSPLTFGQGTKLEIKR"
0.87,,0.22,0.000336,1.53e+06,0.0378,3.02e-05,799000,"antibody 3875 (antibody, V domains shown, Humanized from 3807: VH is 3807-VH5 and VL is 3807-VL3) VH: QVQLVQSGAEVKKPGSSVKVSCKASGFNIKDDYMHWVRQAPGQGLEWMGWIDPENGDTEYASKFQGRVTITADTSANTAYMELSSLRSEDTAVYYCLYGNFYYFDYWGQGTTVTVSS VL: EIVLTQSPATLSLSPGERATLSCSASSSINYMHWYQQKPGQAPKRWIYDTSKLASGVPARFSGSGSGTDFTLTISSLEPEDFAVYYCHQRSFSPLTFGQGTKLEIK"
1.33,1,0.148,0.000235,1.59e+06,,,,"antibody 3807 (antibody, V domains shown, Murine variable regions; also called murine antibody 3807; hybridoma clone 3807) VH: EVQLQQSGAELVRPGTSVKLSCIASGFNIKDDYMHWVKQRPEQGLEWIGWIDPENGDTEYASKFQGKATITADTSANTAYLQFSSLTSEDTAVYYCLYGNFYYFDYWGQGTTLTVSS VL: QIVLTQSPAIMSASPGEKVTMTCSASSSINYMHWYQQKPGTSPKRWIYDTSKLASGVPARFSGSGSGTSYSLTISSMEAEDAATYYCHQRSFSPLTFGAGTKLELK"

# — patent US20230220111A1 (BEIJING TUO JIE BIOPHARMACEUTICAL, published 2023)
